Legend:
elastin (human lung) = target: T1, elastin (human lung) (human, UniProt P15502 27-786); assay: western blot overlay of rPTRP with ECM protein; same result by ELISA
T1 sequence: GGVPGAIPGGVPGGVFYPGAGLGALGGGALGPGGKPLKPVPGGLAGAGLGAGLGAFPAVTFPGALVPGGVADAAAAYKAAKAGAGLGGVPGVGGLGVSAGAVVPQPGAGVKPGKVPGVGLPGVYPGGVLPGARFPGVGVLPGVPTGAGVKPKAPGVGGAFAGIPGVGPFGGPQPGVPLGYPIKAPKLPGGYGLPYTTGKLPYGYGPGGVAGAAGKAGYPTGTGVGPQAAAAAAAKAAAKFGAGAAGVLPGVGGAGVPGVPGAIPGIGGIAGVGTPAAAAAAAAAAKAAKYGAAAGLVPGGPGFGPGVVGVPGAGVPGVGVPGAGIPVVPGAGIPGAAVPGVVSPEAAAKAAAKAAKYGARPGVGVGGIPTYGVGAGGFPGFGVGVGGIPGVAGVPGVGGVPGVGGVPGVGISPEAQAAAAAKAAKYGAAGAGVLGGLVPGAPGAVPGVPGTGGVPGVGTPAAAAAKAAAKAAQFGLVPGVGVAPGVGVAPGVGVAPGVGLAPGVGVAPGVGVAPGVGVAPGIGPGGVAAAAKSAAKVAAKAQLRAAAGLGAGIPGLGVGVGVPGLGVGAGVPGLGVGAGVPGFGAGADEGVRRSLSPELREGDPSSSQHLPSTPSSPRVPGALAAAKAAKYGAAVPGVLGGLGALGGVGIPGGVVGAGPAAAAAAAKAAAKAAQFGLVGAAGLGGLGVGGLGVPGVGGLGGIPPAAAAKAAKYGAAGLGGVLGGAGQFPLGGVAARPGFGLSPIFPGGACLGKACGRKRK

[1] = target: T2, collagen II (human cartilage) (human, UniProt P02458 182-1241); assay: as above
T2 construct: Chemicon; also called Col II

[2] = target: T3, fibrinogen (human plasma) (human, UniProt P02671 20-629; P02675 31-491; P02679 27-437); assay: as above
T3 sequence 1: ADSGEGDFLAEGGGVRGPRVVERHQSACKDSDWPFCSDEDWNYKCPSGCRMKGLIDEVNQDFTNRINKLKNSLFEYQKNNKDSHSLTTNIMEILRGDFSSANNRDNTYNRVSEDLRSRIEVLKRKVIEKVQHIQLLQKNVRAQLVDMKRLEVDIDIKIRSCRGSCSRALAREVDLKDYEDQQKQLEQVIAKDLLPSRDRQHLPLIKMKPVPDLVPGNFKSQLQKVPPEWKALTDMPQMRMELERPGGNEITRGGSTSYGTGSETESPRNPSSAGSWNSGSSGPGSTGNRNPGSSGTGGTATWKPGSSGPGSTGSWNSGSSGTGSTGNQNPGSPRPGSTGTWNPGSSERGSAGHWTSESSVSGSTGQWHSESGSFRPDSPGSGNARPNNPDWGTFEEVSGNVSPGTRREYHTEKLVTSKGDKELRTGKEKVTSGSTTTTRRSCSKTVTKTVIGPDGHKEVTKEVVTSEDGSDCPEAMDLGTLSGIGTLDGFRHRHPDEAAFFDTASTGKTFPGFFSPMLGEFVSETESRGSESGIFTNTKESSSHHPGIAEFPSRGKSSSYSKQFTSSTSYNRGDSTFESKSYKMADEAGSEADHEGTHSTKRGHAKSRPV
T3 sequence 2: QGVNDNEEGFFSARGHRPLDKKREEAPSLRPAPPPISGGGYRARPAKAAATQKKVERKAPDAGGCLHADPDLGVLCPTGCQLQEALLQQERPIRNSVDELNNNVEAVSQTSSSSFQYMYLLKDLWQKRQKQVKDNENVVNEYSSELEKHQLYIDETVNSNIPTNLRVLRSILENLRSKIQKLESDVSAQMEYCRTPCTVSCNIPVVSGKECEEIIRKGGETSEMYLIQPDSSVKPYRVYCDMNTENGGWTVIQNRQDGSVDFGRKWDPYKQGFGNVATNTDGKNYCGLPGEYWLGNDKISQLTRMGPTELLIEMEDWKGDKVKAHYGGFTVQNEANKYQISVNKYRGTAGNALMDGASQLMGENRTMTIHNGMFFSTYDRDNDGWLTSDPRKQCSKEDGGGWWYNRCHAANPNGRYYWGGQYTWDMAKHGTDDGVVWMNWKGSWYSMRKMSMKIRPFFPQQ
T3 sequence 3: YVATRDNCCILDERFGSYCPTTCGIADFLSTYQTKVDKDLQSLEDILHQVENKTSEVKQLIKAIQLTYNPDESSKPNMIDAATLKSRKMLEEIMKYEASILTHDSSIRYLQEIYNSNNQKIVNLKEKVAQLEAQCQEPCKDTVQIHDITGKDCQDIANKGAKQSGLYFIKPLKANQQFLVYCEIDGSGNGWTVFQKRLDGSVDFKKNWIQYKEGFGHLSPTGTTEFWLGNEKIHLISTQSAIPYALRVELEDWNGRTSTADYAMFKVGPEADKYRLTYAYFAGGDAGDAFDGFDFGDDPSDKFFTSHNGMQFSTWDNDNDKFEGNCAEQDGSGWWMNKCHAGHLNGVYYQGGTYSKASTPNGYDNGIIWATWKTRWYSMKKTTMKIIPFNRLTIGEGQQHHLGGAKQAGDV

[3] = target: vitronectin (human plasma) (human, UniProt P04004 20-478); assay: as above
human collagen I = target: T4, human collagen I (human, UniProt P02452 162-1218; P08123 80-1119); assay: as above
T4 construct: Chemicon; also called Col I

[4] = target: T5, collagen III (human placenta) (human, UniProt P02461 154-1221); assay: as above
T5 construct: Chemicon; also called Col III
T5 sequence: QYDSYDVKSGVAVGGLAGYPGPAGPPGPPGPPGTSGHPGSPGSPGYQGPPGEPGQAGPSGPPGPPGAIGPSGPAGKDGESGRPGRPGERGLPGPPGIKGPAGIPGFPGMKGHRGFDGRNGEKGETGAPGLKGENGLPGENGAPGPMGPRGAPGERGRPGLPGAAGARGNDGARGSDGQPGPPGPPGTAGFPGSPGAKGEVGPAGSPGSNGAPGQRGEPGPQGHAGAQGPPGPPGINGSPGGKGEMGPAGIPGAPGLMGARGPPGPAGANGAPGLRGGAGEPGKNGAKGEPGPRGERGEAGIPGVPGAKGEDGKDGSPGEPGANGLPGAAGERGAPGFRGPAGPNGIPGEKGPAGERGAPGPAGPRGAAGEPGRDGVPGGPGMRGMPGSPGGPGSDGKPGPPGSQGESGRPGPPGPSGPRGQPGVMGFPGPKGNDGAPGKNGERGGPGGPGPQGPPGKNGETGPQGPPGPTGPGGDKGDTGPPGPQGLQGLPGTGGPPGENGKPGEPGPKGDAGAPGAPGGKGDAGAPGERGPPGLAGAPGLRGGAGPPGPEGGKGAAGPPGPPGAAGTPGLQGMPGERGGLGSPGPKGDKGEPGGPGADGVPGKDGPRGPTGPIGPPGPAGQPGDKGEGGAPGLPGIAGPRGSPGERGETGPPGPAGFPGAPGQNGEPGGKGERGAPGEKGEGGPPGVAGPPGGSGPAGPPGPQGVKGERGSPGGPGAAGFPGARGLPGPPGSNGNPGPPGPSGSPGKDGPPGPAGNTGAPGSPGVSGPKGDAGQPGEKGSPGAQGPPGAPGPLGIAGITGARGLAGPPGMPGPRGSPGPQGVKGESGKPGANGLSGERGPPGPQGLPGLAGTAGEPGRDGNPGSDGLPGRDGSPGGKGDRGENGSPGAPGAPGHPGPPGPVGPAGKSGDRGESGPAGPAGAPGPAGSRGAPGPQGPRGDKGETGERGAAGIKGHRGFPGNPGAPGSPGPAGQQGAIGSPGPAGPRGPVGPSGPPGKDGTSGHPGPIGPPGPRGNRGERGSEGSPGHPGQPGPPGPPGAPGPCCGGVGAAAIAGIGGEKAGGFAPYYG

[5] = target: T6, collagen IV (human placenta) (human, UniProt P02462 28-1669; P08572 26-1712); assay: as above
T6 construct: Chemicon; also called Col IV

[6] = target: Thrombospondin (human platelet) (human, UniProt P07996 19-1170); assay: western blot overlay: rPTRP on the blot, ECM protein 5 µg/ml, anti-ECM antibody
Thrombospondin (human platelet), sequence (P07996 19-1170 limits assumed): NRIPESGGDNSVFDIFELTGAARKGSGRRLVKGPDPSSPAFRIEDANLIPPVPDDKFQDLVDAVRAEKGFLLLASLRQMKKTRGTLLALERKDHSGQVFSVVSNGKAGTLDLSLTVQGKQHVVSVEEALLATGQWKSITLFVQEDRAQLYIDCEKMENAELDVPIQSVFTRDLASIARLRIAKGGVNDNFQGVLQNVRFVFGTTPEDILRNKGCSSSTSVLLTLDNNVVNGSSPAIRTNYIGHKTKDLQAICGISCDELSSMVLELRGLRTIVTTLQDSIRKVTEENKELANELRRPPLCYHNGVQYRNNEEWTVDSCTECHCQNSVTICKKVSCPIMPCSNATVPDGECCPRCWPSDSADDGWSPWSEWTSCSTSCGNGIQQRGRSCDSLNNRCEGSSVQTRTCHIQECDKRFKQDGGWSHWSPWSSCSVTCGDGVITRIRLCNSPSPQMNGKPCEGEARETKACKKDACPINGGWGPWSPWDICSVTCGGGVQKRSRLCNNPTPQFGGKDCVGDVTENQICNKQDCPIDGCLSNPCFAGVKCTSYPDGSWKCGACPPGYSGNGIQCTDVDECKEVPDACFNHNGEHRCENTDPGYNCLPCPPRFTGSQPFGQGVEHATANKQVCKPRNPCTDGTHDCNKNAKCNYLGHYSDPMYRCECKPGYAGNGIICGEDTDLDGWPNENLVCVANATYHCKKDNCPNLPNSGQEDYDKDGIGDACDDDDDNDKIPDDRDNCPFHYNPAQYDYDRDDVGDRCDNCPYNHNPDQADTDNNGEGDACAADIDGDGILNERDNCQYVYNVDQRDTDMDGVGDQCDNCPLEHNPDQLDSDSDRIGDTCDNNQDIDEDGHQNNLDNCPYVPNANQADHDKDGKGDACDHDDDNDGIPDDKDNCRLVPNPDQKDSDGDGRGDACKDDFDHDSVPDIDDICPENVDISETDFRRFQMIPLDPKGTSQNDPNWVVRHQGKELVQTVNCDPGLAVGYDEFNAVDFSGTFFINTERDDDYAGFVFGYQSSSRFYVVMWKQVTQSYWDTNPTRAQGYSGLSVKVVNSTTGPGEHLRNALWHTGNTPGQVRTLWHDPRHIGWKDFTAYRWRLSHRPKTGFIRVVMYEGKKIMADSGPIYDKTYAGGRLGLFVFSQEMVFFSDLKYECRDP

T2 sequence (P02458 182-1241 limits assumed): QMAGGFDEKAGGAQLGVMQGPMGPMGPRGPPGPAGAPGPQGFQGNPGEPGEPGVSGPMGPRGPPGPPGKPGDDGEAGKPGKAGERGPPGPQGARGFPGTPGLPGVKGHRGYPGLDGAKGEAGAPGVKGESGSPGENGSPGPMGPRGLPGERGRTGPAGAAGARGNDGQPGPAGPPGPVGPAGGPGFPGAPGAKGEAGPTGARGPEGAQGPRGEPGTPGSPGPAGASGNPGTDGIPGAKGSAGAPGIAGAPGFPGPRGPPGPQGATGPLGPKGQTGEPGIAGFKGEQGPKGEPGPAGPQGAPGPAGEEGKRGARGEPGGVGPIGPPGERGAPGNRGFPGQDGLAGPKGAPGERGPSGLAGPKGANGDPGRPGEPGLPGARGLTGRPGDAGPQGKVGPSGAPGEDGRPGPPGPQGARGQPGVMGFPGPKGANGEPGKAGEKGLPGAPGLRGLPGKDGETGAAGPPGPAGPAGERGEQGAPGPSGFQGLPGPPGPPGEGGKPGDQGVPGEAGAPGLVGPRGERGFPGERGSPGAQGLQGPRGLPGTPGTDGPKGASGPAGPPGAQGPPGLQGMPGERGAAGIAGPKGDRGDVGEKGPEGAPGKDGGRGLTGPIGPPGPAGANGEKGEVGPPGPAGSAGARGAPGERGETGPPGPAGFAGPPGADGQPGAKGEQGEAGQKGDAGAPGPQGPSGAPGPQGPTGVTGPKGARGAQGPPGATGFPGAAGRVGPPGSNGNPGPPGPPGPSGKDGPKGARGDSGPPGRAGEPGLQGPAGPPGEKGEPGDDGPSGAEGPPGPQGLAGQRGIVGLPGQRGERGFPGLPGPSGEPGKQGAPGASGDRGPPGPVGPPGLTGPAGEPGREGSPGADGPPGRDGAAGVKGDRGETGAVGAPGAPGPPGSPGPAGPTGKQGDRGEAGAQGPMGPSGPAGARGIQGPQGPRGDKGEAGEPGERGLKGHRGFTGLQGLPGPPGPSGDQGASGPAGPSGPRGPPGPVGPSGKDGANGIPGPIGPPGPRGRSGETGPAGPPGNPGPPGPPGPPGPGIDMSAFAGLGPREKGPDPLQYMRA
vitronectin (human plasma), sequence (P04004 20-478 limits assumed): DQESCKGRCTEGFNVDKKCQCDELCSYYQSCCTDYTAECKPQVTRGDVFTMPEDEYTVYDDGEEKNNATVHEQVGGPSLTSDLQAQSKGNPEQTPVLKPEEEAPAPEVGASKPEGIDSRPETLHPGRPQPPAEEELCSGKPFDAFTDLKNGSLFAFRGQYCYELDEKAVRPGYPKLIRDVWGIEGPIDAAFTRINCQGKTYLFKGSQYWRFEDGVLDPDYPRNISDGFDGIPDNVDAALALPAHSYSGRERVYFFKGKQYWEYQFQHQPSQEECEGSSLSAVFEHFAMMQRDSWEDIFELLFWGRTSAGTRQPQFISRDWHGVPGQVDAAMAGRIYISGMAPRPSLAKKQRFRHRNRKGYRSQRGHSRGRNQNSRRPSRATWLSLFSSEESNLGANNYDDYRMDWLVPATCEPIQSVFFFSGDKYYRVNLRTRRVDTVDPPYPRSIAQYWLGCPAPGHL
T4 sequence (P02452 162-1218, chain 1 of 2): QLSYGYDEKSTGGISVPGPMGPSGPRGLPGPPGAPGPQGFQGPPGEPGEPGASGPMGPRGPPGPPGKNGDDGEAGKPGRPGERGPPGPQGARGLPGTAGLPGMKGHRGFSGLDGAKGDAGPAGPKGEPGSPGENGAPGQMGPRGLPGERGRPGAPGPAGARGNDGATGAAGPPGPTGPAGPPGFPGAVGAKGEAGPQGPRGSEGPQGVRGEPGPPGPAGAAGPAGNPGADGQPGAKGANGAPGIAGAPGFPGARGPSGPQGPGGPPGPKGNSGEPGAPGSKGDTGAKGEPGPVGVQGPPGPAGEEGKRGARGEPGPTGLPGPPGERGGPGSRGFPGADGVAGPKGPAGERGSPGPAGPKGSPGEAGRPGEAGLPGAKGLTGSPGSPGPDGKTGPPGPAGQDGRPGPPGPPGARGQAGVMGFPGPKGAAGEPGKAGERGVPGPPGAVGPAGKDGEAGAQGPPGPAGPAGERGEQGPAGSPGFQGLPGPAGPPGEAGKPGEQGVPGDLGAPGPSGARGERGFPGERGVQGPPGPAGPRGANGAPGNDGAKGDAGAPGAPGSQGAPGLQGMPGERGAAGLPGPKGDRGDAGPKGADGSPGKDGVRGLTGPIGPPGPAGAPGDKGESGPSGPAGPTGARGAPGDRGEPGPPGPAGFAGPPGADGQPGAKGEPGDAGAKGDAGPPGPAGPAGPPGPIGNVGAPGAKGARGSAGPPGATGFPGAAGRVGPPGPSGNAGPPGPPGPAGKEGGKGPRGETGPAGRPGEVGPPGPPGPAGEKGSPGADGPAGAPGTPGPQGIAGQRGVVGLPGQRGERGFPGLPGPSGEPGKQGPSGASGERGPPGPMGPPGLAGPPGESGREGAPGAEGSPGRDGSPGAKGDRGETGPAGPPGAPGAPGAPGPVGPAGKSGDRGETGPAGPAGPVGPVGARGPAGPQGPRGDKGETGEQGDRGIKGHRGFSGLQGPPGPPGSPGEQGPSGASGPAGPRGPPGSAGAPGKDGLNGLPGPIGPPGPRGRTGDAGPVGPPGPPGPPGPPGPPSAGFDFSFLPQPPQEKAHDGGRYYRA
T4 sequence (P08123 80-1119, chain 2 of 2): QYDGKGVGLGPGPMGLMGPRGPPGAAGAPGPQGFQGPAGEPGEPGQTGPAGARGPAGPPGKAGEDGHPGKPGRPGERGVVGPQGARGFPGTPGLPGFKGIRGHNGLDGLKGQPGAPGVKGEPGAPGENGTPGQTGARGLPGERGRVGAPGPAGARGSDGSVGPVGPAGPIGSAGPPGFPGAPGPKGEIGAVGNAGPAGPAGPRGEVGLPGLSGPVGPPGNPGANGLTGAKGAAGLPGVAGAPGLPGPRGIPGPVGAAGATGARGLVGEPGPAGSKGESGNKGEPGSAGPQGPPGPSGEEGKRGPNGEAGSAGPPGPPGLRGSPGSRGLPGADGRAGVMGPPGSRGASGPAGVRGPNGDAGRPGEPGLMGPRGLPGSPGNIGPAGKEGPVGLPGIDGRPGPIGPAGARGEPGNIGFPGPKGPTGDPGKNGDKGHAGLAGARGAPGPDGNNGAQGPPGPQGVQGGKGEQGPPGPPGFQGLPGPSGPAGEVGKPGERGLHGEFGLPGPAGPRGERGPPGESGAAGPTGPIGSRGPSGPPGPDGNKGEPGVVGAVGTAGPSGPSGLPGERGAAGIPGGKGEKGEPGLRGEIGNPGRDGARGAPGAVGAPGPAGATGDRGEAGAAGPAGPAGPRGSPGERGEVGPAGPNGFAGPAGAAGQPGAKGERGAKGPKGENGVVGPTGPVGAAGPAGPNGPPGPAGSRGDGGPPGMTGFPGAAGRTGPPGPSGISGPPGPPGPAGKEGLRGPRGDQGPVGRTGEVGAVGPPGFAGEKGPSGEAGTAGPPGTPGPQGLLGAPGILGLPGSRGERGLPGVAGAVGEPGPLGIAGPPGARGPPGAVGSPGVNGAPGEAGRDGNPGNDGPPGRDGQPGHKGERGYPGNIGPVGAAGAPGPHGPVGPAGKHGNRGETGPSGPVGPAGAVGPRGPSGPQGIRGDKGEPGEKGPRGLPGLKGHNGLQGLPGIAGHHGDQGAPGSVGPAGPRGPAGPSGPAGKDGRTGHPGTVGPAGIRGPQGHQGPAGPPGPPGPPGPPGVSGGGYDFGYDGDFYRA

B1: purified recombinant PTRP (rPTRP), GST tag cleaved (other)
chain: MDVALGVAVTDRVARLALVDSAAPGTVIDQFVLDVAEHPVEVLTETVVGTDRSLAGENHRLVATRLCWPDQAKADELQHALQDSGVHDVAVISEAQAATALVGAAHAGSAVLLVGDETATLSVVGDPDAPPTMVAVAPVAGADATSTVDTLMARLGDQALAPGDVFLVGRSAEHTTVLADQLRAASTMRVQTPDDPTFALARGAAMAAGAATMAHPALVADATTSLPRAEAGQSGSEGEQLAYSQASDYELLPVDEYEEHDEYGAAADRSAPLSRRSLLIGNAVVAFAVIGFASLAVAVAVTIRPTAASKPVEGHQNAQPGKFMPLLPTQQQAPVPPPPPDDPTAGFQGGTIPAVQNVVPRPGTSPGVGGTPASPAPEAPAVPGVVPAPVPIPVPIIIPPFPGWQPGMPTIPTAPPTTPVTTSATTPPTTPPTTPVTTPPTTPPTTPVTTPPTTPPTTPVTTPPTTVAPTTVAPTTVAPTTVAPTTVAPATATPTTVAPQPTQQPTQQPTQQMPTQQQTVAPQTVAPAPQPPSGGRNGSGGGDLFGGF
notes: also called Proline-Threonine Repetitive Protein; Rv0538
Q: Does B1 bind (elastin (human lung))?
A: no binding (tested: 5 µg/ml)

Q: Does B1 bind [1]?
A: no binding (tested: 5 µg/ml)

Q: Does B1 bind [2]?
A: no binding (tested: 5 µg/ml)

Q: Does B1 bind [3]?
A: no binding (tested: 5 µg/ml)

Q: Does B1 bind (human collagen I)?
A: no binding (tested: 5 µg/ml)

Q: Does B1 bind [4]?
A: no binding (tested: 5 µg/ml)

Q: Does B1 bind [5]?
A: no binding (tested: 5 µg/ml)

Q: Does B1 bind [6]?
A: binds

— US20110104194A1 (NEW YORK UNIVERSITY, published 2011)
